# Laboratory results published in paper PMC7145517.
# What was measured:
# [1] = target: Myceliophteria thermophila RbBP5 β-propeller domain (residues 1-347); test: ITC; conditions: parent: 0.25
# [2] = target: Myceliophteria thermophila RbBP5 β-propeller domain (residues 1-347) (Myceliophteria thermophila); test: ITC; VP-ITC; CtCfp1 RID (350 μM) injected into MtRbBP5 β-propeller (35 μM); 20°C; 50 mM Tris pH 8.0, 200 mM NaCl, 2.5 mM β-mercaptoethanol
Kd [1] [µM],fold loss in binding against wild-type Cfp1 [2] [fold],Substance
4.06,,Chaetomium thermophilum Cfp1 RID domain (residues 322-508) Y380A
,20,"Chaetomium thermophilum Cfp1 RID domain, Tyr380 substituted by an alanine (domain or fragment)"
